Residue numbers refer to the chain shown, from its start. Names may count otherwise. Positions of bridges follow the written chain, without caps; N, C: chain ends. Non-standard residues stand in square brackets, D forms with d. *: point of attachment. FITC = O=C1OC2(c3ccc(O)cc3Oc3cc(O)ccc32)c2ccc(NC(=S)*)cc21; R8 = C=CCCCCCC[C@@](C)(N)C(=O)O; S5 = C=CCCC[C@](C)(N)C(=O)O
B1: CtIP-NTD^32–145 (domain or fragment, human, UniProt Q99708 32-145, looked up)
chain: DREVQGLQVKVTKLKQERILDAQRLEEFFTKNQQLREQQKVLHETIKVLEDRLRAGLCDRCAVTEEHMRKKQQEFENIRQQNLKLITELMNERNTLQEENKKLSEQLQQKIEND
notes: also called N-terminal coiled-coil domain; not shown: His6, N-terminal, cleaved; MBP, N-terminal, cleaved
B2: full-length recombinant CtIP wild type (natural protein, human, UniProt Q99708 1-897, looked up)
chain: MNISGSSCGSPNSADTSSDFKDLWTKLKECHDREVQGLQVKVTKLKQERILDAQRLEEFFTKNQQLREQQKVLHETIKVLEDRLRAGLCDRCAVTEEHMRKKQQEFENIRQQNLKLITELMNERNTLQEENKKLSEQLQQKIENDQQHQAAELECEEDVIPDSPITAFSFSGVNRLRRKENPHVRYIEQTHTKLEHSVCANEMRKVSKSSTHPQHNPNENEILVADTYDQSQSPMAKAHGTSSYTPDKSSFNLATVVAETLGLGVQEESETQGPMSPLGDELYHCLEGNHKKQPFEESTRNTEDSLRFSDSTSKTPPQEELPTRVSSPVFGATSSIKSGLDLNTSLSPSLLQPGKKKHLKTLPFSNTCISRLEKTRSKSEDSALFTHHSLGSEVNKIIIQSSNKQILINKNISESLGEQNRTEYGKDSNTDKHLEPLKSLGGRTSKRKKTEEESEHEVSCPQASFDKENAFPFPMDNQFSMNGDCVMDKPLDLSDRFSAIQRQEKSQGSETSKNKFRQVTLYEALKTIPKGFSSSRKASDGNCTLPKDSPGEPCSQECIILQPLNKCSPDNKPSLQIKEENAVFKIPLRPRESLETENVLDDIKSAGSHEPIKIQTRSDHGGCELASVLQLNPCRTGKIKSLQNNQDVSFENIQWSIDPGADLSQYKMDVTVIDTKDGSQSKLGGETVDMDCTLVSETVLLKMKKQEQKGEKSSNEERKMNDSLEDMFDRTTHEEYESCLADSFSQAADEEEELSTATKKLHTHGDKQDKVKQKAFVEPYFKGDERETSLQNFPHIEVVRKKEERRKLLGHTCKECEIYYADMPAEEREKKLASCSRHRFRYIPPNTPENFWEVGFPSTQTCMERGYIKEDLDPCPRPKRRQPYNAIFSPKGKEQKT
notes: human CtIP, full length (amino acids 1 to 897); also called CtIP-wt
B3: full-length recombinant CtIP-L27E (natural protein, human, UniProt Q99708 1-897, looked up)
chain: B2 chain with L27E
notes: human CtIP, full length (amino acids 1 to 897), with L27E; L27E was introduced by site-directed mutagenesis of the 3xFLAG-CtIP-wt expression vector
B4: CtIP-NTD^(18–145, L27E) (domain or fragment, human, UniProt Q99708 18-145, looked up)
chain: SDFKDLWTKEKECHDREVQGLQVKVTKLKQERILDAQRLEEFFTKNQQLREQQKVLHETIKVLEDRLRAGLCDRCAVTEEHMRKKQQEFENIRQQNLKLITELMNERNTLQEENKKLSEQLQQKIEND
notes: not shown: His6, N-terminal, cleaved; MBP, N-terminal, cleaved
B5: CtIP-NTD^18–145 (domain or fragment, human, UniProt Q99708 18-145, looked up)
chain: B4 chain with E10L
notes: as for B4

Legend:
[1] = molecular target: the molecule itself; experiment: cross-linking; 1 or 2 μg recombinant protein with or without peptide in PBS, 30 min at RT; 100 μM disuccinimidyl suberate, 30 min at RT; SDS-PAGE and staining
CtIP-NTD^18–145 = molecular target: B5; experiment: fluorescence polarisation; FITC-labeled peptide (1 mg/ml stock diluted 1:10,000) mixed with serially diluted CtIP-NTD; 20 mM tris (pH 8.0), 150 mM NaCl; 10 min at RT; nonlinear regression with Hill slope; settings: both partners purified
[2] = molecular target: the molecule itself; experiment: cell-based or functional assay
[3] = molecular target: the molecule itself; experiment: SEC-MALS; full-length CtIP 10 μM with 0, 20 or 250 μM peptide; 1 hour on ice, then 30 min at RT; Superose 6 10/300 in 20 mM tris (pH 8.0), 200 mM NaCl, 0.5 mM TCEP

Binder: B1
- stoichiometry N [1]: 2

Binder: {FITC}-S[R8]FKDLWT[S5]LKECH-NH2 (staple 2-9) [FITC-labeled SP^18–31 (hydrocarbon-stapled peptide spanning the entire CtIP tetramerization motif)]
- fold higher Kd than that of SP^18–28 on the same target (CtIP-NTD^18–145): ~100 fold

Binder: B2
- HR frequency (percentage of GFP-positive U2OS EGFP-HR reporter cells after I-SceI) with 10 μM SP^18–28 for 24 hours [2]: ~3 fold decrease
- stoichiometry N [3]: 4

Binder: B3
- stoichiometry N [3]: 2

Binder: B4
- stoichiometry N [1]: 2

Binder: B5
- stoichiometry N [1]: 4

Binder: {FITC}-S[R8]FKDLWT[S5]LK-NH2 (staple 2-9) [FITC-labeled SP^18–28 (hydrocarbon-stapled peptide of CtIP residues 18 to 28)]
- Kd (CtIP-NTD^18–145): 209 nM

— article PMC7895427, “A stapled peptide mimetic of the CtIP tetramerization motif interferes with double-strand break repair and replication fork protection” (Science Advances, 2021)
